Paper PMC8319299, “PALI1 facilitates DNA and nucleosome binding by PRC2 and triggers an allosteric activation of catalysis” (Nature Communications, 2020)
Where no end group is shown, it is not given here. [ ]: non-standard residue; d: D form. Lys(Me3) = C[N+](C)(C)CCCC[C@H](N)C(=O)O; Lys(Me2) = CN(C)CCCC[C@H](N)C(=O)O; Lys(Me) = CNCCCC[C@H](N)C(=O)O

molecular target: T1, EED (amino acids 40-441) (human, UniProt O75530-1 40-441); experiment: fluorescence polarisation; fluorescence anisotropy displacement titration: 2-fold serial dilutions of unlabelled peptide with 10 µM EED and 40 nM 5-FAM labelled JARID2-K116me3 peptide; same buffer, 30 °C; Kd of the unlabelled peptide from a fit; conditions: both partners purified
T1 construct: pGEX-MHL vector, TEV-cleavable GST tag; source: E. coli BL21 (DE3), purified (Glutathione-agarose, TEV cleavage, heparin, gel filtration); not shown: GST, N-terminal, cleaved
T1 sequence (O75530 40-441): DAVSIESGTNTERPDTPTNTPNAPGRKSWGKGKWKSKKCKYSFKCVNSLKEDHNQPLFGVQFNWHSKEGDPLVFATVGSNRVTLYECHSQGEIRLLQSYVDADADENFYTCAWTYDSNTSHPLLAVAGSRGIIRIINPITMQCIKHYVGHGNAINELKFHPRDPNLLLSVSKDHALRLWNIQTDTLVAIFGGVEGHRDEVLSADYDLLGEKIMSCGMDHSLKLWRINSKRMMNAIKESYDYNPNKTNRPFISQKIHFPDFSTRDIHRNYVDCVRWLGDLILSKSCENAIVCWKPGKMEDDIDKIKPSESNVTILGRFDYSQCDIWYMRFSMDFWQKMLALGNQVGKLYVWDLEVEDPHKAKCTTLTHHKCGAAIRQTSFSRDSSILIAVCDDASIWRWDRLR

Row | Binder | Kd [µM]
1 | LK[Lys(Me2)]FPG [PALI1-K1241me2 peptide] | 19
2 | LQ[Lys(Me3)]YA [PALI1-K1219me3 peptide] | 7.59
3 | TKAAR[Lys(Me3)]SAPAT (also: trimethyllysine at K27, position not placed (two Lys in chain)) [H3K27me3 peptide] | 41.7
4 | LK[Lys(Me)]FPG [PALI1-K1241me1 peptide] | 241
5 | LK[Lys(Me3)]FPG [PALI1-K1241me3 peptide] | 7.49

molecular target: T1, EED (amino acids 40-441); experiment: fluorescence polarisation; fluorescence anisotropy direct titration: various concentrations of EED (40-441) with 40 nM 5-FAM labelled JARID2-K116me3 peptide; 50 mM Tris-HCl pH 7.5, 100 mM KCl, 2 mM 2-mercaptoethanol, 0.1 mg/mL BSA, 0.05% NP-40, 2.5% glycerol; 30 °C, 30 min; conditions: both partners purified

Row | Binder | Kd [µM]
6 | RLQAQR[Lys(Me3)]FAQSQY (also: 5-FAM (5-carboxyfluorescein, single isomer) label, site not given here) [5-carboxyfluorescein (5-FAM) labelled JARID2-K116me3 peptide] | 8.07
